In patent US20210380703A1 (RIGEL PHARMACEUTICALS, published 2021):
Numbering of substitutions follows the chain as printed.

B1: 369_D01 (antibody, V domains shown)
VH: EVQLLESGGGLVQPGGSLRLSCAASGFTFSDYGMNWVRQAPGKGLEWVASINYNGGYTGYADSVKGRFTISRDNSKNTLYLQMNSLRAEDTAVYYCARSANWHDTALDYWGQGTLVTVSS
VL: DIQMTQSPSSLSASVGDRVTITCRASQSILTYLNWYQQKPGKAPKLLIYAATSRASGVPSRFSGSGSGTDFTLTISSLQPEDFATYYCQQSYSNPLTFGGGTKVEIK
B2: 369_F06 (antibody, V domains shown)
VH: B1 VH with S30D, G33S, S50G, T58K
VL: B1 VL with L30V, T31S, L33V, L47V, S93D, N94S
B3: 369_D02 (antibody, V domains shown)
VH: B1 VH with G33S, A49S, S50N, G55S
VL: B1 VL with T31S, L47V, A51V, S93D, N94T
B4: 369_F03 (antibody, V domains shown)
VH: B1 VH with A49S, S50G, G55S, G59S
VL: B1 VL with L30V, T31S, L33V, R54L, S93D, N94S
B5: 369_F10 (antibody, V domains shown)
VH: B1 VH with S30D, D31S, A49S, S50N, G55S, T58K, G59S
VL: B1 VL with L30V, A51V, S93D, N94L
B6: 369_E11 (antibody, V domains shown)
VH: B1 VH with D31S, A49S, S50N, G59S
VL: B1 VL with L30I, T31S, R54L, S93D, N94T
B7: 369_F11 (antibody, V domains shown)
VH: B1 VH with S30D, D31S, A49S, S50N, G55S, T58K, G59S
VL: B1 VL with L30I, T31S, S93D, N94L
B8: 369_E02 (antibody, V domains shown)
VH: B1 VH with S30D, D31S, A49S, S50N
VL: B1 VL with L30V, T31S, L33V, A51T, A55H, S93D
B9: 369_D04 (antibody, V domains shown)
VH: B1 VH with S30D, D31S, A49S, S50G, G59S
VL: B1 VL with T31S, L33V, L47V, S93N, N94L
B10: 369_F01 (antibody, V domains shown)
VH: B1 VH with D31S, A49S, S50G, T58K, G59S
VL: B1 VL with L33V, S93E, N94L
B11: 369_E12 (antibody, V domains shown)
VH: B1 VH with D31S, N35H, G55S, G59S
VL: B1 VL with L30I, T31S, S93E, N94S
B12: 369_G01 (antibody, V domains shown)
VH: B1 VH with D31S, G33S, A49S, S50N, G55S, T58K, G59S
VL: B1 VL with T31S, L33V, N94S
B13: 369_F02 (antibody, V domains shown)
VH: B1 VH with D31S, G55S, T58K, G59S
VL: B1 VL with L30V, T31S, L47V, S93D, N94T
B14: 369_D12 (antibody, V domains shown)
VH: B1 VH with S30D, D31S, G33S, S50G, G55S, G59S
VL: B1 VL with T31S, R54L, S93D, N94T

biological target: T1, Human ACVR2A (human, UniProt P27037 20-135, limits assumed); test: ELISA
T1 construct: also called activin receptor, type II A
In short: (§1)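 ELISA measured binding of ACVR2A-specific monoclonal antibodies to human and mouse ACVR2A. Biotinylated goat anti-human kappa light chain served as positive control and human Fc as negative control.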
Further: test concentration or dose not given here.

T1 sequence (P27037 20-135 limits assumed): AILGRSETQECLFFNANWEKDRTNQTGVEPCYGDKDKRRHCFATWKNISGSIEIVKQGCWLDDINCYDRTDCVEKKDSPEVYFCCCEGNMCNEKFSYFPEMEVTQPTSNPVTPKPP

Row | optical density | Binder
1 | 3.13 OD | B1
2 | 3.11 OD | B2
3 | 3.29 OD | B3
4 | 2.58 OD | B4
5 | 3.05 OD | B5
6 | 2.89 OD | B6
7 | 3.2 OD | B7
8 | 2.14 OD | B8
9 | 3.05 OD | B9
10 | 3.28 OD | B10
11 | 2.46 OD | B11
12 | 3.57 OD | B12
13 | 3.07 OD | B13
14 | 3.04 OD | B14

biological target: Mouse ACVR2A (mouse, UniProt P27038 20-135, limits assumed); test: ELISA
In short: as §1

Mouse ACVR2A, sequence (P27038 20-135 limits assumed): as the sequence (P27037 20-135 limits assumed) above, with K20R, V73I counted along it

Row | optical density | Binder
15 | 3.32 OD | B1
16 | 3.07 OD | B2
17 | 3.44 OD | B3
18 | 2.75 OD | B4
19 | 3.23 OD | B5
20 | 3.2 OD | B6
21 | 3.37 OD | B7
22 | 2.34 OD | B8
23 | 2.97 OD | B9
24 | 3.42 OD | B10
25 | 2.69 OD | B11
26 | 3.67 OD | B12
27 | 3.35 OD | B13
28 | 3.1 OD | B14

biological target: T2, Goat anti-Human Kappa; test: ELISA, positive control
T2 construct: Positive control of the ELISA; also called biotinylated goat anti-human kappa light chain
In short: as §1

Row | optical density | Binder
29 | 3.63 OD | B1
30 | 3.51 OD | B2
31 | 3.53 OD | B3
32 | 3.44 OD | B4
33 | 3.67 OD | B5
34 | 3.69 OD | B6
35 | 3.66 OD | B7
36 | 3.43 OD | B8
37 | 3.59 OD | B9
38 | 3.47 OD | B10
39 | 3.67 OD | B11
40 | 3.44 OD | B12
41 | 3.56 OD | B13
42 | 3.53 OD | B14
